16 sequences from patent publication US20180348220 can be followed below.

Holding throughout (test): flow
Details in all cases: whole cells, 4C

Data set [1] has as its system unidentified cell-surface target of MDA-MB-231 cells (Homo sapiens).
Data set [2] has as its system unidentified cell-surface target of MCF7 cells (Homo sapiens).
The test system of data set [3] is unidentified cell-surface target of T-47D cells (Homo sapiens).

In turn, “GGCGCCAGGGGTGTTTGTGCCGTGAGNTGTGGCGCCCGCGTAGCG [05-MB231GCmh]” returned a Kd in data set [1] (n = Ds, ±0.1) of 1.6 nM.

In data set [2] (n = Ds, ±0.2, printed 14A-MCF7rmh), “GGCGGTCNGTCGAACTGTNATGAGCGTGCCGCCCGCGTAGCG [14A-MCF7mh]” returned a Kd of 2.1 nM.

As to “CTCTAGTCNGTCGAACTGTNATGAGCGTGCTAGGGGG [14A-MCF7 (37DsDs)]”, the Kd in data set [2] (n = Ds, ±0.1, Mg2+) worked out at 2.1 nM.

As for “GCGGTCNGTCGAACTGTNATGAGCGTGCCGCCGCGTAGCG [14A-MCF7mh (40DsDs)]”, the Kd in data set [2] (n = Ds, ±0.2) turned out to be 2.2 nM.

As to “CCGCGCAGCCTGGGNTCTCTTTTAGTCNAGTTCAATCGCGCGG [07-MB231 (DsDs)]”, in data set [1] (n = Ds at 15 and 28, ±0.5), the Kd was determined as 2.2 nM.

Sequence “GGCGCCAGGGGTGTTTGTGCCGTGAGNTGTGGCGCC [05-MB231GC]” had a Kd in data set [1] (n = Ds, ±0.2) of 2.2 nM.

In turn, “CCCTCTTAAGTTTATAGNTGTCTTTTGGTNCCTAGGGCGTTTTAAAGGG [23-MB231b]” yielded a Kd in data set [1] (n = Ds, ±5.6) of 23.3 nM. This counts as double-digit nanomolar.

Take “GGCCCGGCTGGCGAAGCCTCCTGGNCTAAGGTTTCTAAAGGGCCCGCGTAGCG [08B-MCF7mh2]”: in data set [2] (n = Ds, ±0.1), the Kd was found to be 2.3 nM. This lies in the single-digit nanomolar range.

With “CCGCGCAGCCTGGGNTCTCTTTTAGTCNAGTTCAATCGCGCGGCGCGTAGCG [07-MB231mh]”, the Kd in data set [1] (n = Ds, ±0.3) came out at 2 nM. This counts as single-digit nanomolar.

In data set [3] (n = Ds, ±3.0), “GCGGCGAAGATCACNACTAGGGGNCCTCGCCGCCGCGTAGCG [03-T47Dmh]” registered a Kd of 39.3 nM.

In data set [2] (n = Ds at 18 and 32, ±0.3), “GGCCCGGCTGGCATGTANTCATGCCTCCTGGNCTAAGGTTTCTAAAGGGCC [08B-MCF7 (51DsDs)]” returned a Kd of 3.2 nM.

In turn, “GCGGCGAAGATCACNACTAGGGGNCCTCGCCGC [03-T47D (DsDs)]” gave a Kd in data set [3] (n = Ds at 15 and 24, ±6.7) of 91.6 nM.

The sequence “CGGTCNGTCGAACTGTNATGAGCGTGCCGCGCGTAGCG [14A-MCF7mh (38DsDs)]” displayed a Kd in data set [2] (n = Ds, ±0.02) of 2.6 nM.

As to “CGGCGGTCNGTCGAACTGTNATGAGCGTGCCGCCGCGCGTAGCG [14A-MCF7mh (44DsDs)]”, the equilibrium dissociation constant (Kd) in data set [2] (n = Ds, ±0.2) was determined as 1.9 nM.

“GGCCCGGCTGGCATGTANTCATGCCTCCTGGNCTAAGGTTTCTAAAGGGCCCGCGTAGCG [08B-MCF7mh]” registered a Kd in data set [2] (n = Ds, ±0.1 (printed 01)) of 2.5 nM.

For the sequence “CCCTCTTAAGTTTATAGNTGTCTTTTGGTNCCTAGGGCGTTTTAAAGGGCGCGTAGCG [23-MB231bmh]”, the Kd in data set [1] (n = Ds, ±0.9) is 2.5 nM.
